Experimental findings from the supplement of paper PMC10126150 are described below.

± gives the standard deviation of the averaged measurements.
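Also: ATP exposure 15 min at 22 °C before imaging.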

For this series, the system named is ATP. Nature of the series: switch fluorescence ratio, 500 uM ATP over buffer (Cy3 cluster intensity, sum of 5 cycles each) (fold (ratio)); higher = stronger signal-on switching upon ATP binding; sequences stand for … in TCGTCGGCAGCGTCAGATGTGTATAAGAGACAGTTTTTTTTTTTTTTTTTTTTTTTTT…TC. Particulars: aptamer strand: ATP DNA aptamer (quencher-CACCTGGGGGAGTATTGCGGAGGAAGG + anchor), 100 nM annealed; ATP concentration: 500 uM. The method, boiled down:
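Clusters carrying Cy3-labelled switching strands on a modified Illumina MiSeq flow-cell were annealed to 100 nM quencher-labelled ATP aptamer and imaged in selection buffer. They were imaged again after 15 min with 500 uM ATP at 22 °C, over five buffer/ATP cycles with NaOH stripping and re-annealing in between. For each cluster, the fluorescence ratio is the summed Cy3 intensity of the target cycles divided by that of the buffer cycles, averaged per switch-domain sequence. Clusters outside 100-1000 RFU were left out.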
Consider AGGTCGGAAT, for which the switch fluorescence ratio came out at 1.04 ± 0.028. In the case of CACCTAGGCT, the switch fluorescence ratio amounted to 1.055 ± 0.0048. For the sequence AGTATAGAAA, the switch fluorescence ratio amounted to 0.978 ± 0.0065. CGGGTGAGGA: the switch fluorescence ratio is 1.04 ± 0.04.

Take CGTGCTGTTA: the switch fluorescence ratio is 0.98019 ± 0.0002. For the sequence CCGCTCGAAT, the switch fluorescence ratio amounted to 3.36 ± 0.38.

TGCACTAGAA: the switch fluorescence ratio turned out to be 1.01 ± 0.017. As for TATGCCTTCG, the switch fluorescence ratio worked out at 1.09 ± 0.05. Next, CTGTGGCTAT: 1.01 ± 0.023; CGGTAGATCG: 1 ± 0.073; ACCGCATCGT: 1.21 ± 0.027. For the sequence TCTCAAGGCG, the switch fluorescence ratio stood at 1.03 ± 0.0089. As to GCTTTTTAAA, the switch fluorescence ratio turned out to be 0.95 ± 0.016.

Consider AATCCTAAGG, for which the switch fluorescence ratio was determined as 1.02 ± 0.048. With AAAGCAGGGA, the switch fluorescence ratio was 1.04 ± 0.043. For TTCTAAAGAT, the switch fluorescence ratio is 0.969 ± 0.034. In the case of TTCGGGATGA, the switch fluorescence ratio was 1 ± 0.056.

With GGTGATTATT, the switch fluorescence ratio is 1.02 ± 0.029. Next, GTAGAAATGT: 0.981 ± 0.027. As for GGATGCGGGA, the switch fluorescence ratio is 0.98 ± 0.028. In the case of TTTGTGAGGG, the switch fluorescence ratio came out at 0.982 ± 0.028. Next, TTGTTTTCGC: 1.04 ± 0.046; GGCGCAATTG: 2.04 ± 0.23; TAAAAGATAG: 1 ± 0.019.

GCGGTGATGG: the switch fluorescence ratio was determined as 1 ± 0.035. Regarding CTTTGACGGG, the switch fluorescence ratio was determined as 0.989 ± 0.013. In the case of AGGAGGGCAG, the switch fluorescence ratio was 1.013 ± 0.0059. Regarding GGGCCTGAAA, the switch fluorescence ratio was found to be 1.08 ± 0.093.

As for TTTTGTCAAG, the switch fluorescence ratio came out at 1.01 ± 0.033.

As for CTGGGGAGGC, the switch fluorescence ratio is 1.06 ± 0.041. In the case of CAGTAGGGGG, the switch fluorescence ratio came to 0.977 ± 0.068. For the sequence TATATGATGC, the switch fluorescence ratio stood at 0.984 ± 0.029. Turning to TGCCTTATTA, the switch fluorescence ratio was found to be 1.035 ± 0.0067. As to ATGGGCTATA, the switch fluorescence ratio worked out at 1.03 ± 0.094. As to GACGTTGAGG, the switch fluorescence ratio turned out to be 0.983 ± 0.023. The result for GGAATTATGT reads 1.02 ± 0.041; that for ACGTTTGGCT, 0.954 ± 0.028. As for GGTACGGGGA, the switch fluorescence ratio worked out at 1.03 ± 0.051. For AAACACAAGA, the switch fluorescence ratio is 1.13 ± 0.18. On to TTGGTTGTAA, for which the switch fluorescence ratio amounted to 1.03 ± 0.059. Consider AGAGGGATAC, for which the switch fluorescence ratio worked out at 1.07 ± 0.035. Turning to TTGGCGGGTT, the switch fluorescence ratio came to 1.008 ± 0.0062. For the sequence TTTCAGTACA, the switch fluorescence ratio amounted to 0.988 ± 0.01. The result for CATTTCGGGT reads 0.992 ± 0.034. With TTTTGAAATA, the switch fluorescence ratio came to 0.997 ± 0.017.

Regarding TTTAAGCACG, the switch fluorescence ratio is 1.09 ± 0.041.

Take TTTATTGTTT: the switch fluorescence ratio was 1 ± 0.011. Regarding TTTTTTTTT, the switch fluorescence ratio was 1.01 ± 0.021. TATGCTGCTG: the switch fluorescence ratio is 1.01 ± 0.036. AGCAAGTTGT: the switch fluorescence ratio came out at 1.03 ± 0.011. Next, TTCCGAGTTT: 1.15 ± 0.19; ACGGTGATCA: 1.03 ± 0.038. As for ATCCTCGGCC, the switch fluorescence ratio was found to be 1.52 ± 0.039. As for TATAGAAATA, the switch fluorescence ratio came out at 0.998 ± 0.017. On to TACTGATAGG, for which the switch fluorescence ratio came out at 1.0161 ± 0.00099. The result for AGTAAAGCGG reads 1 ± 0.027. The result for TTTAGATCAG reads 1.03 ± 0.013; that for AACTAAATCT, 1.023 ± 0.00042; that for AGTTAGCAGA, 0.995 ± 0.026.

With TTTTTACCCT, the switch fluorescence ratio came to 1.08 ± 0.067. Consider GGGAGCTAGG, for which the switch fluorescence ratio stood at 0.9709 ± 0.0038. For the sequence GGGGGACTGT, the switch fluorescence ratio is 0.938 ± 0.057.

As for TTTTAAACAT, the switch fluorescence ratio amounted to 1.11 ± 0.09. In the case of TGGTAATGGG, the switch fluorescence ratio was 1.01 ± 0.049. With TCGGGGGGAT, the switch fluorescence ratio was 1.21 ± 0.36. Next, ATTTGAAACT: 1.02 ± 0.029; ATCGGGTTAG: 0.998 ± 0.016; TTAGGAACAT: 1.2 ± 0.23. Regarding CGAGGTACTG, the switch fluorescence ratio amounted to 1.01 ± 0.0034. Take TCATAAGTAT: the switch fluorescence ratio stood at 0.995 ± 0.086. The result for CGAAAAGTTG reads 1.01 ± 0.048.

In the case of GATGAATGAC, the switch fluorescence ratio was found to be 1.02 ± 0.016. In the case of GGTTTCTTAG, the switch fluorescence ratio amounted to 0.98 ± 0.018. Regarding AGGAGTTCTT, the switch fluorescence ratio came out at 0.989 ± 0.032. Consider TAGAGGGGGA, for which the switch fluorescence ratio is 0.987 ± 0.018. Consider AGGAAAGTGT, for which the switch fluorescence ratio came out at 1.01 ± 0.017. Take TTATATTTTT: the switch fluorescence ratio was 1.02 ± 0.023.

For GGCTGGGTTA, the switch fluorescence ratio was determined as 1 ± 0.026.
